{"source": "the DeepSol protein solubility set", "data": [{"test": "soluble on expression in E. coli; label from the status in PepcDB or PDB records", "values": [{"sequence": "GMLAETDEYMAGGKRPARVYRVVNGIAVLPVTGTLVHRLGGMRPFSGMTGYDGIVACLQQAMADSQVRGILLDIDSPGGQAAGAFDCADMIYRLRQQKPVWALCNDTACSAAMLLASACSRRLVTQTSRIGSIGVMMSHVSYAGHLAQAGVDITLIYAGAHKVDGNQFEALPAEVRQDMQQRIDAARRMFAEKVAMYTGLSVDAVTGTEAAVFEGQSGIEAGLADELINASD", "soluble on expression in E. coli": "not soluble"}, {"sequence": "GMLFESINTGCLDGNDTPWMPFAPYSNDVMVKYFKIDPVRGETITLLKAPAGMEMPRHHHTGTVIVYTVQGSWRYKEHDWVAHAGSVVYETASTRHTPQSAYAEGPDIITFNIVAGELLYLDDKDNIIAVENWKTSMDRYLNYCKAHGIRPKDLSTFEG", "soluble on expression in E. coli": "soluble"}, {"sequence": "GMNLDSYERTGLRVSLDLVNIATPGSRRGTPHTGGCVIEDLHDLLKDDPASVAQLGDDHVEGFVELARLLHTAIDALSNGQVATAATALNHLLRKHPATPELAQDPDGTWRLHHHPLDAELVPMWTAICAEGLAREIGHQNVRRFGICNAHRCDRVYFDTSRNGTRQYCSLACQNRVKAAAFRERRAT", "soluble on expression in E. coli": "soluble"}, {"sequence": "GMNQRDVILDCEKKLLTAIQNNDVESLEVLLHDDLLFIIPSGETVTKETDIAAYSSGKIALRAVVPSDYIIRIIHDTVVVSVNIEIKGEYMEHTLDNTFRYLRVWKLFDGNWKVIAGSCTAIG", "soluble on expression in E. coli": "soluble"}, {"sequence": "GMPTFNPELHAQTLNSERAYFVQPDADPAFTPHIGALVEMLTYARLTTLQAVEGLPEDQLWATAPGFANSIGTLLAHIAAVERVYHVLSFQGRDVTPEDDGAAYWGLTMGKEGTAPARLPTLDELRAELADARAETLRVFAAKDDAWLAEPLGPGWANQHWAWFHVMEDEVNHRGQLRLLRQVLAPEEGG", "soluble on expression in E. coli": "soluble"}, {"sequence": "GMSESCILFFVKYPEPGKVKTRLGEVVGNDKAAMLYRHFVQDMLQGLARLHADLHICYVPGDADLPEKFKAWLGPQHMFAAQQGLDLGERMKHAMQKAFDDGYDRVVLMGSDIPDYPCELVQKALNDLQHYDAAIGPAFDGGYYLIGFRKDSFCPDVFDGIRWGEADVYQPTVEKMRRARLEVLQLPDWNDVDTVWDLNVLYRTNKNSSFRRSSTYALLRENDALIRQYDIDLPGMAPVEKE", "soluble on expression in E. coli": "soluble"}, {"sequence": "GMSQTTVVNGVNVDQLMATIEQIKAKPEIAQFKFRATNQWMGGTHNQATIKDFYGACAEDDTRKPMVFDLDEPPVLLGENRGANPVEYLLVALSGCLTTSLVAHAAARGIALRGVKSRYEGDIDLRGFLGLSEEVPVGYREIRVFFSIDADLTDGQKEELIRMAQKYSPVYNTVAKPVPVAVLLDRG", "soluble on expression in E. coli": "soluble"}, {"sequence": "GMSSSGTSITCEVGLQLIVPDRAPVPLVARLDYSVDDPYAIRAAFHVGDDEPVEWIFARELLTVGIIRETGEGDVRIWPSQDGKERMVNIALSSPFGQARFHAQVAPLSEFLHRTYELVPAGQESDYIDIDAEIAEHLS", "soluble on expression in E. coli": "soluble"}, {"sequence": "GMTDQSVRIIEAALRLYMKKPPHEVSIEEIAREAKVSKSLIFYHFESKQKLLEEAVMHAFRKMMEEFNPRSVEEVVDYGIGFIAERREFIEFMMYALSQVRIEELERMFGEALEKVASLFEGCRHPRETAIALMAMLDGLSIYSLYFDLGKLEKYREIAMEFVESRRVRA", "soluble on expression in E. coli": "soluble"}, {"sequence": "GMVKDKNDVGPKTVAILGAGGKMGARITRKIHDSAHHLAAIEIAPEGRDRLQGMGIPLTDGDGWIDEADVVVLALPDNIIEKVAEDIVPRVRPGTIVLILDAAAPYAGVMPERADITYFIGHPCHPPLFNDETDPAARTDYHGGIAKQAIVCALMQGPEEHYAIGADICETMWSPVTRTHRVTTEQLAILEPGLSEMVAMPFVETMVHAVDECADRYGIDRQAALDFMIGHLNVEIAMWFGYSPKVPSDAALRLMEFAKDIVVKEDWREALNPAKVKQAAELIAGK", "soluble on expression in E. coli": "soluble"}, {"sequence": "GMVTTRKPLRAAIIGLGRLGERHARHLVNKIQGVKLVAACALDSNQLEWAKNELGVETTYTNYKDMIDTENIDAIFIVAPTPFHPEMTIYAMNAGLNVFCEKPLGLDFNEVDEMAKVIKSHPNQIFQSGFMRRYDDSYRYAKKIVDNGDIGKIIYMRGYGIDPISGMESFTKFATEADSGGIFVDMNIHDIDLIRWFTGQDPVQAYGLTSNIAAPQLADIGEFETGVAQLKMSDGVIATLIGGRHAAHGNQVELEVMGSNGWVRIGEHPDLNRVTVFNDQGVVRPSLQSFGERFDTAFTDEVQDFVNNVIVGKQPEVTVDDGIKALKIAKACQQSANIGKLVDIQL", "soluble on expression in E. coli": "soluble"}, {"sequence": "GNSITSATDEQPHIGNYRLQKTIGKGNFAKVKLARHVLTGREVAVKIIDKTQLNPTSLQKLFREVRIMKILNHPNIVKLFEVIETEKTLYLVMEYASGGEVFDYLVAHGRMKEKEARAKFRQIVSAVQYCHQKYIVHRDLKAENLLLDGDMNIKIADFGFSNEFTVGNKLDTFCGSPPYAAPELFQGKKYDGPEVDVWSLGVILYTLVSGSLPFDGQNLKELRERVLRGKYRIPFYMSTDCENLLKKLLVLNPIKRGSLEQIMKDRWMNVGHEEEELKPYTEPDPDFNDTKRIDIMVTMGFARDEINDALINQKYDEVMATYILLGRK", "soluble on expression in E. coli": "soluble"}, {"sequence": "GPDFNWTSVLNLTHNRNKIVALDGDIKQSVEGSWFIHKIGLPYNSFYVKEFAGVDPSTGKGLYYLNTQDEKGNYNREMTDDASKAQAIPYKSADPKISGGFTNILSYKWFDLGLTFTYSLGGYSFDKTGTLIETDGSKEKSYNLPVYALDRWQKPGDRTDVPRFVLEQGAGPQNSSRYIHSTDHIRLKNLTLGFTLPGRWVQKALIENARVYFSGSNLLTWAKWKQYDPEVPVNGEVFCEAPPMRTFNFGVEITF", "soluble on expression in E. coli": "not soluble"}, {"sequence": "GPGSMADSNPTKEGTSSAPLHPLKDKWFVFYIPASKGNEYEHETKELGYVSTIEEVYSTINTLPPITLLPNDDNLVFSRNKIEPQFESFPGGMRFSIFCKTKTQCREALTYVVAVVLGEAIGRDACKGECVCDIVRIGHKGSAMYKESVRIEVWAHQSPYNTAMEKYLVSTLSAIPGITVSARPFK", "soluble on expression in E. coli": "soluble"}, {"sequence": "GPGSMARNKIALIGSGMIGGTLAHLAGLKELGDVVLFDIAEGTPQGKGLDIAESSPVDGFDAKFTGANDYAAIEGADVVIVTAGVPRKPGMSRDDLLGINLKVMEQVGAGIKKYAPEAFVICITNPLDAMVWALQKFSGLPAHKVVGMAGVLDSARFRYFLSEEFNVSVEDVTVFVLGGHGDSMVPLARYSTVAGIPLPDLVKMGWTSQDKLDKIIQRTRDGGAEIVGLLKTGSAFYAPAASAIQMAESYLKDKKRVLPVAAQLSGQYGVKDMYVGVPTVIGANGVERIIEIDLDKDEKAQFDKSVASVAGLCEACIGIAPSLK", "soluble on expression in E. coli": "soluble"}, {"sequence": "GPGSMASKKGGKKANGEDLEAAILRWFECEGEPATVQSLTDALGSKFGKQLVQNTLEQCLKEQKLLAKDIKKARFYFLASPAPGSNDEGSDVGSHKIDIVKQLRQLRNGVSMLSSELSVLLQAQTSSKRATTIASLVSECAALRSRLQALHVIAGKESSCVSDDVSLLIHRYKRARELWRDRKRITVCVIDAVLGDSCGPQELEDIFGLSTDEQMNLCLSGTALTLPATVSS", "soluble on expression in E. coli": "not soluble"}, {"sequence": "GPGSMDGRNGSKRARSEPANGPNQSNVGTSGVEEPHVEEVPARDPELERQLDRLNIDDNLKESLRGLSPSTRGEVMNDIIRSETIERASSLMEQANLLSLIELRRLPELMEEGMSSQHYRADVDDDSELHEFGQALEDMQADGQSPSPQRGRPHGMLHTPGPLILEFLRAFAAGTHAAFADAAGVSEHLNILSELAAQRAMGVTEDVDNMSYEELLELEDKIGYVSRGVKPEDVQKCVKDVPTPHEGNCVVCQCEWSDNAETAPAVVELNRCKHVFHRTCIREWLLKNKKCPVCTQEVV", "soluble on expression in E. coli": "soluble"}, {"sequence": "GPGSMEDYKAKGNDAFKAKRYQEAIDWYTKAIELDPNGEASGALYSNRAGSWQNLNNFEKAAADSEQCIRLRPDWLKGYFRLGVAMESMVKYDEAQKAFQKALQLSPGNEEVMDKLHAINTKVRERNEKTKSQQCKTPEEAKQLGNSFFKDGKYDQAAEFYTRAIELQTEPVKEKAVYYTNRAACHQQTHMYSLMVDDCNAAIEIDPANVKAYLRRGIAYEGMEKWKLALEDYTKAQSISPGVAGASQGILRCQRVLRS", "soluble on expression in E. coli": "soluble"}, {"sequence": "GPGSMEFIMNSVYAIDPIYLLMSAVAQQMLAMAWFDCIVGQIDRYYVAADKGVRRVEHAITRYPGIMVSATTFACSLLRSLVVLTVVSMCNCSTLYQYQSAAMVAVMIGMMRVHRTFSCHRPIQIFVTETGYEMAAAMTAAVVCYYMKKYNF", "soluble on expression in E. coli": "soluble"}, {"sequence": "GPGSMFYPNSPQTSPQLTQIPYGQQYAMMQRQIQQPYHPFATTEPQARLYPYHYQGPIQQEQGGFITQQSTAASPQYVQMRVTPVDQSIMSGYPNQTANGSSSSSFNYNIHPQQQQQQQQQQQLRHHAMPVGSVPLQDDRYRKQLIVNYLAPDVTSTDLHELFSRFGELDGARIIYDKQTNMSKGYGFVYFCHAEDAKEAVERMSGYEFHGKWLKVGYSTNPLNIVPSNSSPYVHAGSRGAAG", "soluble on expression in E. coli": "not soluble"}, {"sequence": "GPGSMGQSIGDRLQNLVLRDEERARLLSLQNTKSILPSLAPSRRLLLVHAIMTLVVPYVTRKVQRKVLEEGWEREPVPTARYRIAKALRYAVVTWSLLSLANTFNFLMTGRYRTLVERILSLRLVYGSQRMMRFTNLLYMNQHVQWQTWMSLFSALSLGR", "soluble on expression in E. coli": "not soluble"}, {"sequence": "GPGSMGRNKKSKATAHAQACSDGEREEEHGAVPTTTLPARAEGCEEENGASAAAADGAQGTPDHHSGRCSERGRDSDDDAPKTKKEYRGNRLKKLEVQRKKGKGKGANEDDKAEEAAREGDAHEEPLVVTRQRAVEVLYCPICTFPAEMCEFSGIVEKCRPWLLEHAADLADAEERGRKRRILTEKDRLEAMLEGRGVKKALERIVVLEVEKRTGRRMITSVFGMDLFGFNLKDVSRDWRKRFSCGAGVRAAEEGKHQDCIDIQGNVVDQLADMLITKYKIPKESVYLMEGKKKVPYPY", "soluble on expression in E. coli": "not soluble"}, {"sequence": "GPGSMISLDAYVRYVYQYSSPTTTEHLRQTVWGPLGLCSGASASPKPISGAQPCWRDASVSHEVLYAVPPITTNVRCVGSRIDAHLTDLLEALPLSSPTVPPTTPAAATLASRFARPSRLATIGLPFCLCVKPQTEHLTPWSLLCTSSSSPTDASNPEMNRKQPSRPLVLVVDTGAAEAVLRGSDLYAPGIVTASRPFHAGERAVVAFYVERVAGTGDEAQNGSAEAPCRLVCALPTGATLSAEQFEPLDMDVDYQDKHQQVDMLAGRSTFLVCIGSGVTCMEWKTVMSRSVHGTALRMEWTPQGQPSRATLRALLGITKGTEDSNARSSTPLPQPPSSGVEEGEERAADVFFLQNYSSMVPVALLVQHLSPAALRRAWTHSDDADQGRSPVPCTILDACAAPGGKTSLLLSLLQERAEQERTAMAEAAIPLPSATVATEPFRVVCCERSRPRQEQLMSLLHRHFASHLAAPSASPSLNSTPAVDVPYVTRVLESRCVDTNKFLKRKLTEAAGSSDGSAASHTASFDAVLLDPPCTGMGLRPKLMPHVQSIASIQRSADYQRKLFDSCIRHIRGSPTSPGVIVYSTCTTTLEENEANVLHFLCTYPSVRLARARTAAQRALCGLSTVRSYGAQHDTDGSHGSTCLCSCLLRNEITEVQLAKERAAAAEGLSSTDPLLLLRFMPRPLDIYDDISEDGVGFFVAVFLCSGYTDA", "soluble on expression in E. coli": "not soluble"}, {"sequence": "GPGSMKNISNKRIIKDLKLLLEEVDANNEANSSGSPHSAAIFSVHTDTIYNWILKVKAPADSVYGGAGNTYQLSVLFSEDYPHEPPTVRFVTPVYSPLVTEEGGICDRMVNDVWTPDQRASDVIKLVLDRVFSQYKNHSDDDVNPEARHYLEKFPQEFAARVRRGG", "soluble on expression in E. coli": "soluble"}]}]}
